In test [1] the target is T1, Aβ1-40 monomers (Homo sapiens (synthetic peptide; …, UniProt P05067).
T1 construct: amyloid-beta 1-40, cut product of the amyloid precursor protein (APP); numbers count on: the Aβ peptide; Used as monomers, held on the plate by a rabbit polyclonal antibody against the C-terminus of Aβ; also called Aβ40; wt-Aβ1-40; source: bought: Innovagen
The test is described as follows: ELISA; sandwich ELISA; 1 nM Aβ1-40 monomers or 1 nM Aβ1-42 aggregates held by coated rabbit polyclonal antibodies (C-terminal of Aβ, or Aβ1-42); serial dilutions of the recombinant proteins in 0.1% BSA, 0.05% Tween-20 in PBS, 2 h at RT; goat anti-mouse HRP. Particulars: both partners purified.

For test [2], the target named is T2, Aβ1-42 aggregates (Homo sapiens (synthetic peptide; …, UniProt P05067).
T2 construct: amyloid-beta 1-42, cut product of the amyloid precursor protein (APP); numbers count on: the Aβ peptide; Soluble aggregates; also called Aβ42; Aβ1-42 soluble aggregates; source: aggregates prepared as previously described [50]
T2 sequence (P05067 672-713): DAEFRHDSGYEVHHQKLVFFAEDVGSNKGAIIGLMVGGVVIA
Described as above. Particulars: both partners purified.

Consider one molecule from PMC9720954, “Blood–brain barrier penetrating neprilysin degrades monomeric amyloid-beta in a mouse model of Alzheimer’s disease” (Alzheimer's Research & Therapy, 2022).

T1 sequence (P05067 672-711): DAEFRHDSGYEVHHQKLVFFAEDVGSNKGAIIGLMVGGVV

B1: scFc-scFv8D3 (scFv, V domains shown)
VH: EVQLVESGGGLVQPGNSLTLSCVASGFTFSNYGMHWIRQAPKKGLEWIAMIYYDSSKMNYADTVKGRFTISRDNSKNTLYLEMNSLRSEDTAMYYCAVPTSHYVVDVWGQGVSVTVSS
VL: DIQMTQSPASLSASLEEIVTITCQASQDIGNWLAWYQQKPGKSPQLLIYGATSLADGVPSRFSGSRSGTQFSLKISRVQVEDIGIYYCLQAYNTPWTFGGGTKLELK
notes: first variable domain of scFv8D3, as in m1; (G4S)3 linker between the two parts of scFv8D3, written out from the printed formula; second variable domain of scFv8D3, as in m1; in-house linker between scFv8D3 and scFc; Lacks NEP; the control of the study; the signal peptide is cleaved on expression; Mw 81 kDa; also called scFv8D3-scFc; source: Expi293 cells, transfected (pcDNA3.4), purified …
As to B1, the binding result in test [1] and in test [2] was “no binding” in each case.
